Consider one protein from FireProtDB (doi:10.1021/bi012042l).

For this series the following is noted: Rattus norvegicus; pH 7.3; 20 °C; GdnHCl; Fluorescence; potassium phosphate 20 mM; whole UniProt chain shown.

B1: Fatty acid-binding protein, intestinal wild type, P02693 (protein)
chain: MAFDGTWKVDRNENYEKFMEKMGINVVKRKLGAHDNLKLTITQEGNKFTVKESSNFRNIDVVFELGVDFAYSLADGTELTGTWTMEGNKLVGKFKRVDNGKELIAVREISGNELIQTYTYEGVEAKRIFKKE
As for B1, the “denaturant midpoint (higher = more stable)” value came out at 1.4 M and the unfolding free energy turned out to be 5 kcal/mol.
